# Data as given in patent KR20180136327A (dated 2018).
# B1: 발굴항체 (anti-ET A human antibody, VH SEQ ID NO 12 / VL SEQ ID NO 13) fused to Cκ, scAb format (scFv, V domains shown)
# VH: EVQLVESGAEVRKPGASVKVSCKASGYTFTSSDINWIRQATGQGLEWMGYMNPKNGNTDYAQKFQGRISMTRDSSISTAYMELSSLRSEDTAVYYCAKDRYGSGTYGFGMDVWGPGTLVTVS
# VL: DIVMTQSPSAMSASVGDRVSITCRASQGINNYLAWFQQKPGKVPKRLMDVGSILQSGIPSRFRGRGSGTQFTLTISSLQAEDSGTYFCLQHNTYPLTFGPGTKVEIKR
# Biological target: T1, Endothelin receptor type A (ET A) on cells (human, UniProt P25101 21-427)
# T1 chain: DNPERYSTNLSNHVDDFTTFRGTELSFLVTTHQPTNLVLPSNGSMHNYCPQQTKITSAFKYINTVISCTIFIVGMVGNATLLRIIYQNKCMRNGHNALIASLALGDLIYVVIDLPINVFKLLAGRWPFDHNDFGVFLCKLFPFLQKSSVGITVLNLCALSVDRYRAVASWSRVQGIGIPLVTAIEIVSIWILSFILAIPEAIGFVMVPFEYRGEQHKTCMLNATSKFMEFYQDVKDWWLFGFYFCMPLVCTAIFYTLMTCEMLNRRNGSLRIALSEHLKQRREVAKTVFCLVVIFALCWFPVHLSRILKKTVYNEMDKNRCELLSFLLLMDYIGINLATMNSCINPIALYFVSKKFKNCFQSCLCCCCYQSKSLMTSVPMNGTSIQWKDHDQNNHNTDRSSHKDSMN
# Experiment: cell-based or functional assay
binder,measurement,value
B1,"K i; inhibition of signalling induced by 10 nM ET-1 (cytosolic Ca2+, Fura-2-AM 340/380 nm ratio) in ET A expressed CHO-K1 stable cell line",56 nM
same,"K i; inhibition of signalling induced by 10 nM ET-1 (cytosolic Ca2+, Fura-2-AM 340/380 nm ratio) in HT-29 colon cancer cells",51 nM
